Data published in paper PMC4086270.

Tests used:
[1] = target: PP2A (total PP2A, detected with an anti-PP2A C subunit antibody) (mouse (endogenous in adult mouse brain slices)) (UniProt P63330)
[2] = target: PP2A (total PP2A, detected with an anti-PP2A C subunit antibody) (mouse (endogenous in adult mouse brain slices)) (UniProt P63330); remark: listed apart in the source
[3] = target: endogenous SET (mouse (endogenous in adult mouse brain slices)) (UniProt Q9EQU5); test: co-IP; lysates of adult mouse brain slices incubated 5 h 30 min with or without recombinant SET (4 μM); IP with polyclonal anti-SET (recognises endogenous and recombinant SET) and protein A Sepharose, overnight 4°C; Hepes 10 mM, NaCl 150 mM, CaCl2 2 mM, Triton X-100 1% pH 7.4; blot for total PP2A C subunit, then methyl-PP2A after stripping
Sequence of UniProt Q9EQU5 (Q9EQU5 whole entry): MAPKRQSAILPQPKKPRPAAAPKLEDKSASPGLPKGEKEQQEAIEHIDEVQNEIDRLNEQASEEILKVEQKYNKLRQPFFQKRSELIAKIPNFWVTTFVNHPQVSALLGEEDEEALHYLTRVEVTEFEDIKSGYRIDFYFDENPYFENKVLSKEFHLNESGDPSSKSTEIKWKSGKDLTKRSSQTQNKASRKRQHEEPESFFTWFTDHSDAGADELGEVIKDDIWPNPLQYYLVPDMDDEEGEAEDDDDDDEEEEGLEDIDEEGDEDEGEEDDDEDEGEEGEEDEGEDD

Sequence of UniProt P63330 (P63330 whole entry): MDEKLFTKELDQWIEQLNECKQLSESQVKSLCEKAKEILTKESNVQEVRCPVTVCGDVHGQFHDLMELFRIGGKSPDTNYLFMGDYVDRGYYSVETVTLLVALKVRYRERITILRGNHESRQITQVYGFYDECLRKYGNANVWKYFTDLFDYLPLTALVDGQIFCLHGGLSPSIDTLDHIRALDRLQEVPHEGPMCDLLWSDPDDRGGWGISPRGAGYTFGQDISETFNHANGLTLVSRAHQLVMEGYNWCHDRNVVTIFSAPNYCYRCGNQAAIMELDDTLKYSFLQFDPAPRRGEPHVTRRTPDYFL

| PP2A activity (release of p-nitrophenol) on PP2A immunoprecipitated from brain slices containing internalized recombinant SET, percent of control [1] | ratio of methyl-PP2A to total PP2A by western blotting of brain slice lysates after 5 h 30 min of recombinant SET internalization, percent of the control ratio (% of control ratio) [2] | ratio of methyl-PP2A to total PP2A co-immunoprecipitated with SET [3] | Substance |
| --- | --- | --- | --- |
| 84 % of control | 83.6 |  | recombinant HA-tagged SET protein fused to the Penetratin vector (from UniProt Q01105 1-290) (natural protein) |
|  |  | 2.18 | methylated PP2A (from UniProt P63330 1-309) (enzyme) |
